Measurements from article PMC2908215 (Human mutation, 2010).

Target: T1, MLH1 p.Tyr750X (human, UniProt P40692 1-749)
T1 sequence (looked up): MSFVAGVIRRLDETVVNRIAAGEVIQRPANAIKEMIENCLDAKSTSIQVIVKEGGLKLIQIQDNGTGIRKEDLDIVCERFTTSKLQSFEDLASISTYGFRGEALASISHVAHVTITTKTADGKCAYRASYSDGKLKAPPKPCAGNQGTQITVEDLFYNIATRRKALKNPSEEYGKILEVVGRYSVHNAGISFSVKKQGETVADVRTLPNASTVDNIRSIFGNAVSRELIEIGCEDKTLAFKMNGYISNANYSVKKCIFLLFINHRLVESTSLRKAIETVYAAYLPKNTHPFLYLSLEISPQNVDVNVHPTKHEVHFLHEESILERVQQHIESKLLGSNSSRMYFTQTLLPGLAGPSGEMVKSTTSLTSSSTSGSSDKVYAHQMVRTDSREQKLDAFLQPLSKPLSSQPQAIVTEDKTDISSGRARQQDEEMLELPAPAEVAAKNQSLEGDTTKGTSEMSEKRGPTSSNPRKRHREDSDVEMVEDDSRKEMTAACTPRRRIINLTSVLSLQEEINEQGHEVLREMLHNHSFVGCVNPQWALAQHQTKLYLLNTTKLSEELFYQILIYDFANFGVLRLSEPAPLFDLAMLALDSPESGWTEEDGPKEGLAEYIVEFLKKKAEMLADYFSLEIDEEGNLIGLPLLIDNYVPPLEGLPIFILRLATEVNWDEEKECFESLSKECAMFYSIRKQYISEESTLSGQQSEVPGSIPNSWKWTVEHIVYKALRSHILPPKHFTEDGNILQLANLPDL
Assay: co-IP

B1: PMS2 (natural protein, UniProt P54278 1-862, looked up)
chain: MERAESSSTEPAKAIKPIDRKSVHQICSGQVVLSLSTAVKELVENSLDAGATNIDLKLKDYGVDLIEVSDNGCGVEEENFEGLTLKHHTSKIQEFADLTQVETFGFRGEALSSLCALSDVTISTCHASAKVGTRLMFDHNGKIIQKTPYPRPRGTTVSVQQLFSTLPVRHKEFQRNIKKEYAKMVQVLHAYCIISAGIRVSCTNQLGQGKRQPVVCTGGSPSIKENIGSVFGQKQLQSLIPFVQLPPSDSVCEEYGLSCSDALHNLFYISGFISQCTHGVGRSSTDRQFFFINRRPCDPAKVCRLVNEVYHMYNRHQYPFVVLNISVDSECVDINVTPDKRQILLQEEKLLLAVLKTSLIGMFDSDVNKLNVSQQPLLDVEGNLIKMHAADLEKPMVEKQDQSPSLRTGEEKKDVSISRLREAFSLRHTTENKPHSPKTPEPRRSPLGQKRGMLSSSTSGAISDKGVLRPQKEAVSSSHGPSDPTDRAEVEKDSGHGSTSVDSEGFSIPDTGSHCSSEYAASSPGDRGSQEHVDSQEKAPKTDDSFSDVDCHSNQEDTGCKFRVLPQPTNLATPNTKRFKKEEILSSSDICQKLVNTQDMSASQVDVAVKINKKVVPLDFSMSSLAKRIKQLHHEAQQSEGEQNYRKFRAKICPGENQAAEDELRKEISKTMFAEMEIIGQFNLGFIITKLNEDIFIVDQHATDEKYNFEMLQQHTVLQGQRLIAPQTLNLTAVNEAVLIENLEIFRKNGFDFVIDENAPVTERAKLISLPTSKNWTFGPQDVDELIFMLSDSPGVMCRPSRVKQMFASRACRKSVMIGTALNTSEMKKLITHMGEMDHPWNCPHGRPTMRHIANLGVISQN
  co-precipitated PMS2 in relation to wild-type: 23 % of wild-type
